Reference: the supplement of paper PMC12042874
± gives the uncertainty stated by the source.

experiment: amyloid nucleation score (Sup35N fusion, yeast selection) (log enrichment); library NNK3; higher = more nucleation; inactive = no reads after selection
How it was run: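 The nucleation score is a DiMSum log enrichment of output over input reads, centred on the mode score of non-aggregating sequences. Sequences under 100 input reads were excluded, and reads came from Illumina sequencing of plasmid inserts. Psi-negative yeast expressing Sup35N fused to peptides of 20 random codons were induced with 100 μM copper sulfate for 24 hours and grown 7 days at 30°C on medium lacking adenine and uracil. Random libraries had three technical output replicates.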

With NSLVGLVCKTGSSFTRNKVV as the substance, how does the amyloid nucleation score read?
The amyloid nucleation score was -0.104 ± 0.75.

With HNASGCWWDSALPITFRRLG as the substance, how does the amyloid nucleation score read?
The amyloid nucleation score was “inactive”.

Which amyloid nucleation score does the source give for SFDNSWVVGAIELNDFDSWH here?
Its amyloid nucleation score is “inactive”.

With GMSLECNFIYL as the substance, how does the amyloid nucleation score read?
The amyloid nucleation score was 1.84 ± 0.1.

With TRVHWHR as the substance, how does the amyloid nucleation score read?
Its amyloid nucleation score is 1.63 ± 0.1.

With NCGSYSKSDN as the substance, how does the amyloid nucleation score read?
Its amyloid nucleation score is “inactive”.

With LCTYVFYPIANSSALSLNKV as the substance, how does the amyloid nucleation score read?
Its amyloid nucleation score is “inactive”.

With MGEMRMLVTVT as the substance, how does the amyloid nucleation score read?
The amyloid nucleation score was “inactive”.

Which amyloid nucleation score does the source give for DFIDLLLSSDEIMKS here?
Its amyloid nucleation score is “inactive”.

For LFFHHVKLRH, which amyloid nucleation score is on record?
Its amyloid nucleation score is “inactive”.

Which amyloid nucleation score does the source give for WDSMMYNMVKDDSGLWNHVE here?
Its amyloid nucleation score is “inactive”.

Which amyloid nucleation score does the source give for GSFYCLYFVGDVIIILTCLR here?
Its amyloid nucleation score is “inactive”.

Which amyloid nucleation score does the source give for LKRLHFKSGDMSGQRQFRGS here?
The amyloid nucleation score was “inactive”.

With YDKLSYKLPLF as the substance, how does the amyloid nucleation score read?
Its amyloid nucleation score is “inactive”.

Which amyloid nucleation score does the source give for NYVVRGRSQNVRNSEDNWGK here?
The amyloid nucleation score was “inactive”.

For LVCDHGSCVKMVIMTDFMSS, which amyloid nucleation score is on record?
Its amyloid nucleation score is “inactive”.

Which amyloid nucleation score does the source give for IINLQSWQHLLNRHGTELSV here?
The amyloid nucleation score was “inactive”.

Which amyloid nucleation score does the source give for LCKFYRYRTLRHSEEKPCHH here?
Its amyloid nucleation score is “inactive”.

Which amyloid nucleation score does the source give for LFKYGALLCVEVQY here?
The amyloid nucleation score was “inactive”.

Which amyloid nucleation score does the source give for WCAISICQLLKRQWYLGSYV here?
The amyloid nucleation score was “inactive”.

Which amyloid nucleation score does the source give for RQSCGFILQWDKLCFSRDRT here?
The amyloid nucleation score was 0.879 ± 0.25.

For VNMISCVYFDMSIERTDEMI, which amyloid nucleation score is on record?
The amyloid nucleation score was 0.801 ± 0.19.

With FYYRESRQLRLWVYIGSIVY as the substance, how does the amyloid nucleation score read?
The amyloid nucleation score was “inactive”.

For TCCVIICEFLRRMVSAQSSL, which amyloid nucleation score is on record?
The amyloid nucleation score was 0.758 ± 0.28.

Which amyloid nucleation score does the source give for GKVNSWIGVRMKLLWSGRFG here?
The amyloid nucleation score was “inactive”.

With RLKLMRP as the substance, how does the amyloid nucleation score read?
Its amyloid nucleation score is “inactive”.

Which amyloid nucleation score does the source give for RSMTWFSQDYVSVHRVL here?
Its amyloid nucleation score is “inactive”.

For TMSGWFNGCVYGVSAIHSSD, which amyloid nucleation score is on record?
Its amyloid nucleation score is “inactive”.

Which amyloid nucleation score does the source give for WFLVNRDWFLGCQVTGEVLI here?
Its amyloid nucleation score is “inactive”.

For RHSLMRDYYNFLMLDCTE, which amyloid nucleation score is on record?
The amyloid nucleation score was “inactive”.

For DIVSLVNAFMISTIYTVTRK, which amyloid nucleation score is on record?
The amyloid nucleation score was “inactive”.

With SMRKRKRIKLDI as the substance, how does the amyloid nucleation score read?
Its amyloid nucleation score is “inactive”.

With RSCGVFHQRARVHCCIKSLP as the substance, how does the amyloid nucleation score read?
Its amyloid nucleation score is “inactive”.

For RLIIYSFARSQL, which amyloid nucleation score is on record?
Its amyloid nucleation score is “inactive”.

With SMCPLYFINHAIAVDAMKFF as the substance, how does the amyloid nucleation score read?
Its amyloid nucleation score is “inactive”.

For SYCWRVSHGEYH, which amyloid nucleation score is on record?
The amyloid nucleation score was “inactive”.

For AYNQSRILGVDLACRNELLC, which amyloid nucleation score is on record?
The amyloid nucleation score was “inactive”.

Which amyloid nucleation score does the source give for KGNRFPRVLGIMFAFLFGSE here?
The amyloid nucleation score was “inactive”.

Which amyloid nucleation score does the source give for VGAYYGMFNSLMSFLQWISQ here?
Its amyloid nucleation score is 0.733 ± 0.2.

With GDGYRQRVLLWMLVSAGPAS as the substance, how does the amyloid nucleation score read?
The amyloid nucleation score was “inactive”.

Which amyloid nucleation score does the source give for IIASDLSLSVVNVFN here?
The amyloid nucleation score was 0.341 ± 0.31.

With PSENKRGFPDLVFAMINSGI as the substance, how does the amyloid nucleation score read?
Its amyloid nucleation score is “inactive”.

Which amyloid nucleation score does the source give for IADDQTYLLVLLFYFIKKLN here?
Its amyloid nucleation score is “inactive”.

With YFGYRLLAAERSSERVICFK as the substance, how does the amyloid nucleation score read?
Its amyloid nucleation score is -0.352 ± 0.75.

With FKVAH as the substance, how does the amyloid nucleation score read?
Its amyloid nucleation score is “inactive”.

For VSLKYSTKKPWLKTDHPCWI, which amyloid nucleation score is on record?
Its amyloid nucleation score is “inactive”.

With VDLAIMLVDLLGHSKMYQTG as the substance, how does the amyloid nucleation score read?
The amyloid nucleation score was “inactive”.

For LVGGTTLLIPVCS, which amyloid nucleation score is on record?
The amyloid nucleation score was “inactive”.

With FADYLMKPCRMCLLRDPVYS as the substance, how does the amyloid nucleation score read?
Its amyloid nucleation score is “inactive”.

Which amyloid nucleation score does the source give for ANVDTIDFASAVILF here?
The amyloid nucleation score was “inactive”.

With VSKYIVSHIASSWSWGQWVL as the substance, how does the amyloid nucleation score read?
Its amyloid nucleation score is “inactive”.

For SCVMSWIFWNFVWCYSVRCV, which amyloid nucleation score is on record?
The amyloid nucleation score was “inactive”.

With GCGRCFL as the substance, how does the amyloid nucleation score read?
Its amyloid nucleation score is “inactive”.

Which amyloid nucleation score does the source give for CSGYFDCIDTLKCNSS here?
Its amyloid nucleation score is “inactive”.

With FFSASQRVAY as the substance, how does the amyloid nucleation score read?
The amyloid nucleation score was “inactive”.

For GCFGPLCDRLSEWMENCWKK, which amyloid nucleation score is on record?
Its amyloid nucleation score is 0.392 ± 0.35.

Which amyloid nucleation score does the source give for KRECYMIIHI here?
Its amyloid nucleation score is “inactive”.

With SSSMCYRCDLSMFLGSGRSG as the substance, how does the amyloid nucleation score read?
Its amyloid nucleation score is “inactive”.

For EALTLTARR, which amyloid nucleation score is on record?
Its amyloid nucleation score is “inactive”.

For ANCPMHRLTAGNSLCLWTW, which amyloid nucleation score is on record?
Its amyloid nucleation score is 1.69 ± 0.086.

For DGPTRLNLFNSLFVSLKRMY, which amyloid nucleation score is on record?
Its amyloid nucleation score is 1.58 ± 0.12.

For YWSNPYSYKFYEFMIHTALQ, which amyloid nucleation score is on record?
The amyloid nucleation score was “inactive”.

Which amyloid nucleation score does the source give for RCYKMLDLSILDIRYIVMLR here?
Its amyloid nucleation score is “inactive”.

Which amyloid nucleation score does the source give for LGCKESSVPPARVRGPGQAI here?
Its amyloid nucleation score is “inactive”.

For YGDWIHATCVICSLSF, which amyloid nucleation score is on record?
Its amyloid nucleation score is 3.39 ± 0.05.

With CVWTSVLDVRYLYWCNVDVR as the substance, how does the amyloid nucleation score read?
Its amyloid nucleation score is “inactive”.

With LRTSVFRVLVNSILVKNLIS as the substance, how does the amyloid nucleation score read?
The amyloid nucleation score was “inactive”.

Which amyloid nucleation score does the source give for TCCICIMSSYRLGRNLLIEL here?
The amyloid nucleation score was -0.075 ± 0.26.

With YKWSLTTRRTVRHLRED as the substance, how does the amyloid nucleation score read?
Its amyloid nucleation score is “inactive”.

Which amyloid nucleation score does the source give for DIPSVGQKRCSHGDRYNSAK here?
Its amyloid nucleation score is “inactive”.

Which amyloid nucleation score does the source give for VWSFGLLVS here?
The amyloid nucleation score was -0.17 ± 1.1.

For LSISYSIGGDGDMIGNAACV, which amyloid nucleation score is on record?
The amyloid nucleation score was “inactive”.

Which amyloid nucleation score does the source give for HLCAVHKQFFYGSTGGVYTR here?
Its amyloid nucleation score is “inactive”.

Which amyloid nucleation score does the source give for VGELIGLGSLWGMEINY here?
Its amyloid nucleation score is “inactive”.

With CRSLSLTSGIKF as the substance, how does the amyloid nucleation score read?
Its amyloid nucleation score is “inactive”.

For SPRTNNPTMHRSGW, which amyloid nucleation score is on record?
The amyloid nucleation score was “inactive”.

For AVWYRNI, which amyloid nucleation score is on record?
Its amyloid nucleation score is 2.06 ± 0.057.

With CGTTVGFLMLYLSCIRWL as the substance, how does the amyloid nucleation score read?
The amyloid nucleation score was “inactive”.

Which amyloid nucleation score does the source give for SYAPKMSIRGMNFKTVMVFL here?
The amyloid nucleation score was 2.37 ± 0.076.
